Test results: patent US20070166286

Columns and labels:
Assay in all cases: cell_activity
FLPe (thermostable FLP) = conditions: substrate plasmid ad2879, 293 cells
FLP recombinase = conditions: substrate plasmid ad2879, 293 cells; 4.9 in Table 2 with vector control
[1] = test system: Cre recombinase (bacteriophage P1); conditions: Ad2HCRGFP/EBV in HepG2, 72 h post infection, moi 1000
[2] = test system: Cre-LBD (bacteriophage P1); conditions: type B provirus pk8-ad4332, +tamoxifen; 4.1 without
[3] = test system: LBD-Cre-LBD (bacteriophage P1); conditions: type B provirus pk8-ad4626, +tamoxifen; 0.05 without

Row | Substance | activity (mean GFP intensity) (FLPe (thermostable FLP)) | activity (mean GFP intensity) (FLP recombinase) | activity (% genomes circularized (or more)) [1] | activity (arbitrary GFP intensity) [2] | activity (arbitrary GFP intensity) [3]
1 | FRT site | 2.39 | 0.01 |  |  | 
2 | loxP site |  |  | 95 | 6 | 4.2
